The values below come from patent publication US20070048315A1.

Substitutions are numbered along the chain they refer to. “And” between values parts separate entries of the source, which are not always exact repeats. Identical values can stand only once.

Test [1] addresses "Bac-wt" human IL-23 (identical to elastikine human IL-23 in sequence, expressed in SF9 cells) (human) (UniProt P29460). Put plainly: BIAcore SPR, mAb amine-coupled on CM5 chip, IL-23 in solution, 25 C.
In test [2] the target is "N222Q" human IL-23 (elastikine sequence with Asn222 to Gln in the p40 subunit, expressed in SF9 cells) (human) (UniProt P29460). The description is as above.

B1: humanized anti-human IL-23p19 antibody hum7G10 (antibody, human IgG1, kappa, V domains shown)
VH: QVQLVQSGAEVKKPGASVKVSCKASGYTFTSNVMHWVRQAPGQGLEWMGYINPYNDGTKYNEKFKGRVTMTTDTSTSTAYMELRSLRSDDTAVYYCARNWDVAYWGQGTLVTVSS
VL: DIQMTQSPSSLSASVGDRVTITCRASQSISDYLHWYQQKPGKAPKLLIYYASQSISGVPSRFSGSGSGTDFTLTISSLQPEDFATYYCQNGHSFPFTFGQGTKVEIKR
Consider B1, for which the Kd (usually the concentration at which binding is half-saturated) in test [1] is 10 nM; in test [2], 0.3 nM and 1 nM.

B2: humanized anti-human IL-23p19 antibody hum6H12 (antibody, human IgG1, kappa, V domains shown)
VH: B1 VH with T30N, S31R, N32Y, V33L, M34I, Y54N, D56A, K59N, V102Q
VL: B1 VL with A51T
As to B2, the dissociation constant (Kd) in test [1] was determined as 5.1 nM; in test [2], 0.5 nM.
